Numbering of substitutions follows the chain as printed.
Key:
[1] = target: T1, CsgG Y51A/N55V/F56Q/N91R/K94Q/R97W-del(V105-I107) pore containing the C terminal strep tag (Escherichia coli, UniProt P0AEA2 16-277); assay: reconstitution of purified pore with synthetic peptide; SDS-PAGE after heating
T1 construct: also called Y51A/F56Q/N55V/N91R/K94Q/R97W-del(V105-I107); not shown: C-terminal Strep tag
T1 chain: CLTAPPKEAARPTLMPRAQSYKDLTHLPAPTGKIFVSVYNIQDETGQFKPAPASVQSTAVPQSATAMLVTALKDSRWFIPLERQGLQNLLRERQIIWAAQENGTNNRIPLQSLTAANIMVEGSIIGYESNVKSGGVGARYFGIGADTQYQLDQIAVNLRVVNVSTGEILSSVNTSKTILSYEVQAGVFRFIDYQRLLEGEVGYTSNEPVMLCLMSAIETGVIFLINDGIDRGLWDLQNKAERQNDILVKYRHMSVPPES

[2] = target: T2, CsgG Y51A/F56Q/N91R/K94Q/R97W-del(V105-I107) pore containing the C terminal strep tag (Escherichia coli, UniProt P0AEA2 16-277); assay: pore 1; complex made by incubating pore and peptide; DNA translocation, signal:noise
T2 construct: not shown: C-terminal Strep tag
T2 chain: T1 chain with V55N

[3] = target: T3, CsgG Y51A/N55I/F56Q/N91R/K94Q/R97W-del(V105-I107) pore containing the C terminal strep tag (Escherichia coli, UniProt P0AEA2 16-277); assay: pore 2; complex made by incubating pore and peptide; DNA translocation, signal:noise
T3 construct: N551 read as N55I; also called Y51A/N551/F56Q/N91R/K94Q/R97W-del(V105-I107) (so in the source); not shown: C-terminal Strep tag
T3 chain: T1 chain with V55I

[4] = target: T4, CsgG Y51A/F56A/N91R/K94Q/R97W-del(V105-I107) pore containing the C terminal strep tag (Escherichia coli, UniProt P0AEA2 16-277); assay: pore 4; complex made by incubating pore and peptide; DNA translocation, signal:noise
T4 construct: not shown: C-terminal Strep tag
T4 chain: T1 chain with V55N, Q56A

[5] = target: T5, CsgG Y51A/F56I/N91R/K94Q/R97W-del(V105-I107) pore containing the C terminal strep tag (Escherichia coli, UniProt P0AEA2 16-277); assay: pore 5; complex made by incubating pore and peptide; DNA translocation, signal:noise
T5 construct: F561 read as F56I; also called Y51A/F561/N91R/K94Q/R97W-del(V105-I107) (so in the source); not shown: C-terminal Strep tag
T5 chain: T1 chain with V55N, Q56I

[6] = target: T6, CsgG Y51A/F56V/N91R/K94Q/R97W-del(V105-I107) pore (Escherichia coli, UniProt P0AEA2 16-277); assay: pore 6; complex made by incubating pore and peptide; DNA translocation, signal:noise
T6 chain: T1 chain with V55N, Q56V

[7] = target: T7, CsgG Y51S/N55A/F56Q/N91R/K94Q/R97W-del(V105-I107) pore (Escherichia coli, UniProt P0AEA2 16-277); assay: pore 7; complex made by incubating pore and peptide; DNA translocation, signal:noise
T7 chain: T1 chain with A51S, V55A

[8] = target: T8, CsgG Y51S/N55V/F56Q/N91R/K94Q/R97W-del(V105-I107) pore containing the C terminal strep tag (Escherichia coli, UniProt P0AEA2 16-277); assay: pore 8; complex made by incubating pore and peptide; DNA translocation, signal:noise
T8 construct: not shown: C-terminal Strep tag
T8 chain: T1 chain with A51S

[9] = target: T9, CsgG Y51T/N55V/F56Q/N91R/K94Q/R97W-del(V105-I107) pore containing the C terminal strep tag (Escherichia coli, UniProt P0AEA2 16-277); assay: pore 9; complex made by incubating pore and peptide; DNA translocation, signal:noise
T9 construct: not shown: C-terminal Strep tag
T9 chain: T1 chain with A51T

Measured: binding result

B1: CsgF-(1-35) synthetic peptide (peptide)
peptide: GTMTFQFRNPNFGGNPNNGAFLLNSAQAQNSYKDP
binds: all assays above
